In article PMC4848090, “Mechanistic insight into a peptide hormone signaling complex mediating floral organ abscission” (eLife, 2016):

Assays:
HAESA - IDA = assay: Isothermal titration calorimetry of SERK1 titrated into HAESA in the presence of IDA; format: binding, Arabidopsis thaliana; settings: ITC, 25°C, pH 5.0; SERK1 (100 μM) titrated into HAESA (10 μM) in the presence of 150 μM wild-type IDA peptide
Source text: (§1) Synthetic genes coding for the Arabidopsis thaliana HAESA (residues 20–620) and SERK1 ectodomains (residues 24–213, carrying Asn115→Asp and Asn163→Gln mutations), codon optimized for expression in Trichoplusia ni (Geneart, Germany), were cloned into a modified pBAC-6 transfer vector (Novagen, Billerica, MA), providing an azurocidin signal peptide and a C-terminal TEV (tobacco etch virus protease) cleavable Strep-9xHis tandem affinity tag. Recombinant baculoviruses were generated by co-transfecting transfer vectors with linearised baculovirus DNA (ProFold-ER1, AB vector, San Diego, CA) followed by viral amplification in Spodoptera frugiperda Sf9 cells. […] The purified HAESA ectodomain was incubated with a synthetic IDA peptide (YVPIPPSA-Hyp-SKRHN, the N-terminal Tyr residue was added to allow for peptide quantification by UV absorbance) and the SERK1 ectodomain in 1:1:1.5 molar ratio. […]
(§2) ITC experiments were performed using a Nano ITC (TA Instruments, New Castle, DE) with a 1.0 mL standard cell and a 250 μL titration syringe. […] Molar protein concentrations for SERK1 and HAESA were calculated using their molar extinction coefficient and a molecular weight of 27,551 and 74,896 Da, respectively (determined by MALDI-TOF mass spectrometry). […] Data were analyzed using the NanoAnalyze program (version 2.3.6) as provided by the manufacturer.

HAESA ectodomain = assay: Isothermal titration calorimetry of SERK1 titrated into HAESA ectodomain only; parameters: species or system Arabidopsis thaliana; settings: ITC, 25°C, pH 5.0; SERK1 (100 μM) titrated into HAESA (10 μM) in the absence of IDA; n.d. no detectable binding
Source text: as §1, §2

B1: SERK1: LRR ectodomain of Arabidopsis SERK1 co-receptor (residues 24–213, Asn115→Asp, Asn163→Gln), expressed in insect cells (protein)
chain: ASANLEGDALHTLRVTLVDPNNVLQSWDPTLVNPCTWFHVTCNNENSVIRVDLGNAELSGHLVPELGVLKNLQYLELYSNNITGPIPSNLGDLTNLVSLDLYLNSFSGPIPESLGKLSKLRFLRLNNNSLTGSIPMSLTQITTLQVLDLSNNRLSGSVPDNGSFSLFTPISFANNLDLCGPVTSHPCPGS
modifications: left off: Strep, C-terminal, cleaved | 9xHis, C-terminal, cleaved
notes: LRR ectodomain of Arabidopsis SERK1 co-receptor (residues 24–213, Asn115→Asp, Asn163→Gln), expressed in insect cells
With B1 the “Kd of SERK1, protein in cell: HAESA - IDA” value (HAESA - IDA) was “mid-nanomolar range” and the “Kd of SERK1, protein in cell: HAESA” value (HAESA ectodomain) was “no detectable interaction”.
